{"source": "paper PMC8125234", "about": "“Cardiolipin Stabilizes and Increases Catalytic Efficiency of Carnitine Palmitoyltransferase II and Its Variants S113L, P50H, and Y479F” (International Journal of Molecular Sciences, 2021)", "molecules": {"B1": {"name": "CPT II WT (Homo sapiens) (protein)", "chain": "SAGSGPGQYLQRSIVPTMHYQDSLPRLPIPKLEDTIRRYLSAQKPLLNDGQFRKTEQFCKSFENGIGKELHEQLVALDKQNKHTSYISGPWFDMYLSARDSVVLNFNPFMAFNPDPKSEYNDQLTRATNMTVSAIRFLKTLRAGLLEPEVFHLNPAKSDTITFKRLIRFVPSSLSWYGAYLVNAYPLDMSQYFRLFNSTRLPKPSRDELFTDDKARHLLVLRKGNFYIFDVLDQDGNIVSPSEIQAHLKYILSDSSPAPEFPLAYLTSENRDIWAELRQKLMSSGNEESLRKVDSAVFCLCLDDFPIKDLVHLSHNMLHGDGTNRWFDKSFNLIIAKDGSTAVHFEHSWGDGVAVLRFFNEVFKDSTQTPAVTPQSQPATTDSTVTVQKLNFELTDALKTGITAAKEKFDATMKTLTIDCVQFQRGGKEFLKKQKLSPDAVAQLAFQMAFLRQYGQTVATYESCSTAAFKHGRTETIRPASVYTKRCSEAFVREPSRHSAGELQQMMVECSKYHGQLTKEAAMGQGFDRHLFALRHLAAAKGIILPELYLDPAYGQINHNVLSTSTLSSPAVNLGGFAPVVSDGFGVGYAVHDNWIGCNVSSYPGRNAREFLQCVEKALEDMFDALEGKSIKS", "notes": "made in house; host or cells: Escherichia coli BL21Gold DE"}, "B2": {"name": "CPT II variant Y479F (Homo sapiens; Y479F) (protein)", "chain": "B1 chain with Y454F", "notes": "as for B1"}, "B3": {"name": "CPT II variant S113L (Homo sapiens; S113L) (protein)", "chain": "B1 chain with S88L", "notes": "as for B1"}}, "key": {"[1]": {"substrate": "C[N+](C)(C)C[C@H](O)CC(=O)[O-]", "test": "Determination of the kinetic parameters kcat and KM", "format": "biochemical, human", "details": "L-carnitine varied, absence of CL, 25 °C", "experimental": "Before activity measurements, the storage buffer of the enzymes was replaced with assay buffer (50 mM KH2PO4, 120 mM KCl, 1 mM EDTA-Na4) using vivaspin turbo 4 tubes (Satorius Stedim biotech GmbH, Göttingen, Germany) at 4 °C. The pH of assay buffer was adjusted with KOH to 7.4. The storage buffer was diluted at least 1:500 in assay buffer. In addition, before each experimental set up, the protein samples were centrifuged at 16,000× g for 5 min at 4 °C to remove any micro-aggregates. After that, the protein concentration was determined using bicinchoninic acid (BCA) protein assay kit (Thermo Fisher Scientific GmbH, Berlin, Germany). The enzyme activity of recombinant CPT II was performed following Rufer et al. with modifications described elsewhere. […] After pre-conditioning the mixture to 25 °C for 2 min, the reaction was started by adding 15 nM of recombinant enzyme. The reverse reaction of CPT II was detected with the enzyme activity assay. CPT II catalyzed the transfer of fatty acid residue from Pal-CoA to L-carnitine with release of CoA and Pal-carnitine. The released CoA was then detected by the reaction of the free thiol group with DTNB, forming 5-mercapto-(2-nitrobenzoic acid). This compound has a molar extinction coefficient of 13,600 M^−1 cm^−1 at a wavelength of 410 nm, and its formation was followed spectroscopically. […] The slope of the progress curve was used to determine the reaction velocity.\nIt is assumed that the reaction catalyzed by CPT II represents a ping-pong mechanism or compulsory order ternary-complex mechanism.\nThe kinetic parameters were determined by evaluating the obtained v/S characteristic according to the Michaelis–Menten Equation (1). The […] kcat was calculated using Equation (2):(1) v=Vmax∗[S]/KM+[S] (2) kcat=Vmax/cenzyme"}, "[2]": {"test": "nanoDSF thermostability of recombinant CPT II enzymes in assay buffer", "format": "physicochemical", "details": "for TM in Buffer: assay buffer, 1 mg/mL protein, nanoDSF; for ∆TM in Buffer: reference TM of WT in buffer (ΔTM = 0 °C)", "experimental": "The protein stability was investigated applying nano differential scanning fluorimetry (nanoDSF) using a protein concentration of 1 mg/mL in assay buffer. […] The heating rate has been set to 1 °C per min. A heating ramp from 15 to 95 °C was determined. The nanoDSF data were obtained using a Prometheus NT.48 device. First derivatives were calculated using PR.ThermControl software (NanoTemper Technologies GmbH, Munich, Germany). Experiments were performed at least three times independently as double determination."}, "[3]": {"test": "Onset of aggregation by scattered light back reflection during heating ramp", "format": "physicochemical", "details": "assay buffer; heating ramp 15 °C to 80 °C", "experimental": "Supplementary materials can be found at https://www.mdpi.com/article/10.3390/ijms22094831/s1, Figure S1: Scattered light back reflection as measure for aggregation during the heating ramp from 15 °C to 80 °C of CPT II WT (black) and the variants P50H (red), S113L (blue) and Y479F (green) in assay buffer (magenta). The light scattering data were obtained simultaneously with nanoDSF data using the back reflection technology in a Prometheus NT.48 device. The unfolding of proteins leads to display of hydrophobic regions of the protein on the surface, which is followed by hydrophobic interaction of the protein molecules resulting in aggregation events. These aggregates are then detected via light scattering. […] The data allow the detection of onset of aggregation (Tagg) which differs clearly among the variants. The Tagg for WT is 38 °C, Y479F is 37 °C, S113L is 35 °C and P50H is 32 °C. […] Figure S2: The first derivatives of the transition curves of WT and the variants resulting from the ratio 350/330 nm were plotted against the temperature. The black, red, blue and green solid lines show the curves of WT and variants P50H, S113L and Y479F measured in assay buffer, respectively. The black, red, blue and green dashed lines show the maxima of the values of the first derivatives of the ratio 350 nm/330 nm of WT and variants P50H, S113L and Y479F, respectively. Figure S3: The effect of amino acid exchange in absence and presence of n-octyl-β-d-glucopyranoside (β-OG) on the stability of CPT II (1 mg/mL) assessed by nanoDSF. The TM of WT (37 °C) in buffer was used as reference value (ΔTM = 0 °C) to determine the ΔTM for the variants and the ΔTM for WT and variants in presence of β- OG. Error bars are SD derived from three independent experiments. Table S1. Comparison of the mean values of the half-lives (t1/2) of CPT II WT and the variants at 30 °C with the half-lives at 37, 40 or 42 °C. The differences of the half-lives for each CPT II enzyme between 37 and 40 or 42 °C as well as 40 and 42 °C are not significant. Number of experiments for each variant (n ≥ 3). Table S2. Comparison of the mean values of the half-lives (t1/2) between CPT II WT and the variants Y479F, S113L and P50H at 30, 37, 40 or 42 °C. n ≥ 3. Table S3. […] Comparison of the ∆TM-values of CPT II WT and the variants Y479F, S113L and P50H in buffer or in presence of 0.25 mM cardiolipin or 1% n-octyl-β-d-glucopyranoside (β-OG) assessed by nanoDSF (n ≥ 3). […] Comparison of the transition temperatures (TM) of WT and the variants Y479F, S113L and P50H in buffer with of 0.25 mM cardiolipin or 1% n-octyl-β-d-glucopyranoside (β-OG) assessed by nanoDSF (n ≥ 3). […]"}}, "note": "Substitutions are numbered along the chain they refer to. In names and notes the source's numbering stands. Several values for one entry are separate records, joined by “and”; a condition that tells them apart may be missing. Identical values can stand only once."}
{"molecule": "B1", "values": [{"measurement": "Km", "setting": "[1]; other: WT", "result": "15.1 ± 3.4", "unit": "mM"}, {"measurement": "kcat", "setting": "[1]; other: WT", "result": "149 ± 11.1", "unit": "s⁻¹"}, {"measurement": "kcat/Km", "setting": "[1]; other: WT", "result": "9800 ± 1600", "unit": "M⁻¹ s⁻¹"}, {"measurement": "TM in Buffer", "setting": "[2]", "result": "36.9 ± 1.0 °C and 37 °C"}, {"measurement": "∆TM in Buffer", "setting": "[2]", "result": "0.0 ± 1.0", "unit": "°C"}, {"measurement": "Onset of aggregation (Tagg)", "setting": "[3]", "result": 38, "unit": "°C"}]}
{"molecule": "B2", "values": [{"measurement": "Km", "setting": "[1]; other: Y479F", "result": "17.4 ± 4.4", "unit": "mM"}, {"measurement": "kcat", "setting": "[1]; other: Y479F", "result": "140 ± 18.5", "unit": "s⁻¹"}, {"measurement": "kcat/Km", "setting": "[1]; other: Y479F", "result": "8100 ± 1100", "unit": "M⁻¹ s⁻¹"}, {"measurement": "TM in Buffer", "setting": "[2]", "result": "36.2 ± 1.2", "unit": "°C"}, {"measurement": "∆TM in Buffer", "setting": "[2]", "result": "-0.74 ± 1.2", "unit": "°C"}, {"measurement": "Onset of aggregation (Tagg)", "setting": "[3]", "result": 37, "unit": "°C"}]}
{"molecule": "B3", "values": [{"measurement": "Km", "setting": "[1]; other: S113L", "result": "15.5 ± 2.3", "unit": "mM"}, {"measurement": "kcat", "setting": "[1]; other: S113L", "result": "144 ± 5", "unit": "s⁻¹"}, {"measurement": "kcat/Km", "setting": "[1]; other: S113L", "result": "9300 ± 1400", "unit": "M⁻¹ s⁻¹"}, {"measurement": "∆TM in Buffer", "setting": "[2]", "result": "-3.1 ± 0.7", "unit": "°C"}, {"measurement": "Onset of aggregation (Tagg)", "setting": "[3]", "result": 35, "unit": "°C"}]}
